Laboratory results: US20070014803A1 (ARBOR VITA, published 2007)

B1: EZRIN Binding Protein 50 PDZ #1, GST fusion (other)
chain: LCCLEKGPNGYGFHLHGEKGKLGQYIRLVEPGSPAEKAGLLAGDRLVEVNGENVEKETHQQVVSRIRAALNAVRLLVVDPE
notes: also called EBP50 d1; EBP50 (PDZ #1)
B2: KIAA1284, GST fusion (other)
chain: KDVNVYVNPKKLTVIKAKEQLKLLEVLVGIIHQTKWSWRRTGKQGDGERLVVHGLLPGGSAMKSGQVLIGDVLVAVNDVDVTTENIERVLSCIPGPMQVKLTFENAYDVKRET
B3: MAGI1 d1, GST fusion (other)
chain: PSELKGKFIHTKLRKSSRGFGFTVVGGDEPDEFLQIKSLVLDGPAALDGKMETGDVIVSVNDTCVLGHTHAQVVKIFQSIPIGASVDLELCRGYPLPFDPDGIHRD
notes: also called MAGI1 (PDZ #1)
B4: PICK1 F.L., GST fusion (other)
chain: MFADLDYDIEEDKLGIPTVPGKVTLQKDAQNLIGISIGGGAQYCPCLYIVQVFDNTPAALDGTVAAGDEITGVNGRSIKGKTKVEVAKMIQEVKGEVTIHYNKLQADPKQGMSLDIVLKKVKHRLVENMSSGTADALGLSRAILCNDGLVKRLEELERTAELYKGMTEHTKNLLRAFYELSQTHRAFGDVFSVIGVREPQPAASEAFVKFADAHRSIEKFGIRLLKTIKPMLTDLNTYLNKAIPDTRLTIKKYLDVKFEYLSYCLKVKEMDDEEYSCIALGEPLYRVSTGNYEYRLILRCRQEARARFSQMRKDVLEKMELLDQKHVQDIVFQLQRLVSTMSKYYNDCYAVLRDADVFPIEVDLAHTTLAYGLNQEEFTDGEEEEEEEDTAAGEPSRDTRGAAGPLDKGGSWCDS
B5: KIAA0807 MAST2, GST fusion (other)
chain: ISALGSMRPPIIIHRAGKKYGFTLRAIRVYMGDSDVYTVHHMVWHVEDGGPASEAGLRQGDLITHVNGEPVHGLVHTEVVELILKSGNKVAISTTPLENSS
B6: KIAA0751 RIM2, GST fusion (other)
chain: TLNEEHSHSDKHPVTWQPSKDGDRLIGRILLNKRLKDGSVPRDSGAMLGLKVVGGKMTESGRLCAFITKVKKGSLADTVGHLRPGDEVLEWNGRLLQGATFEEVYNIILESKPEPQVELVVSRPIG
B7: INADL d3, GST fusion (other)
chain: NVELVRKDGQSLGIRIVGYVGTSHTGEASGIYVKSIIPGSAAYHNGHIQVNDKIVAVDGVNIQGFANHDVVEVLRNAGQVVHLTLVRRK
notes: also called INADL (PDZ #3)
B8: AIPC d1, GST fusion (other)
chain: LIRPSVISIIGLYKEKGKGLGFSIAGGRDCIRGQMGIFVKTIFPNGSAAEDGRLKEGDEILDVNGIPIKGLTFQEAIHTFKQIRSGLFVLTVRTKLVSPSLTNSS
notes: also called AIPC (PDZ #1)
B9: KIAA0316, GST fusion (other)
chain: IPPAPRKVEMRRDPVLGFGFVAGSEKPVVVRSVTPGGPSEGKLIPGDQIVMINDEPVSAAPRERVIDLVRSCKESILLTVIQPYPSPKSEFIVTD

Experiments:
HIV-1 Peptide 1905 [1] = biological target: T1, HIV-1 Peptide 1905 (HIV-1); experiment: MATRIX screen of GST-PDZ array, modified G assay ELISA; 'Intensity of Hit'
T1 construct: also called HIV peptide 1905
Experimental: (§1) The primary MATRIX screen against all PDZ proteins in the library was performed under pre-incubation conditions, which are a modification of the G assay. A pre-incubation assay incubates the peptide with the HRP-streptavidin before addition of the mixture to the PDZ-coated plate. The subsequent titrations of the peptide against the PDZs of interest were performed under normal ELISA G assay conditions. In normal conditions the peptide is incubated on the PDZ coated plate before the later addition of the HRP-streptavidin.
(§2) Prepare peptides in half of volume need with double of desired concentration. […] Dilute HRP (1:1000) in another half of volume (same volume with peptide) then mix with peptides. […] Incubate the peptide-HRP mixtures for 20 minutes at RT 8. Wash plate 3× with cold PBS* 9. Add peptide-HRP mixtures at 50 μl per well (write time on plate) 10. […] Turn on plate reader and prepare files 12. Promptly wash plate 5× with room temperature PBS 13. Add 100 μl/well TMB substrate (write time on plate) 14. Incubate in dark at room temp for a maximum of 30 minutes 15. Stop reaction with 100 μl of 0.18M H₂SO₄, 30 min. after adding TMB 16. Take last reading at 450 nm soon after stopping reaction

HIV-1 Peptide 1904 [2] = biological target: T2, HIV-1 Peptide 1904 (HIV-1); experiment: as above
T2 construct: also called HIV peptide 1904
Experimental: as §1, §2

HIV-1 Peptide 1904 [3] = biological target: T2, HIV-1 Peptide 1904; experiment: G assay ELISA (FIG. 1C): GST-PDZ on anti-GST plate, biotinylated peptide titrated, streptavidin-HRP
HIV-1 Peptide 1905 [4] = biological target: T1, HIV-1 Peptide 1905; experiment: modified G assay ELISA, third experiment (text prints 'FIG. 3C' a second time, read as FIG. 5C)
HIV-1 Peptide 1904 [5] = biological target: T2, HIV-1 Peptide 1904; experiment: modified G assay ELISA (FIG. 2C): peptide pre-incubated with streptavidin-HRP, titrated on GST-PDZ plate
HIV-1 Peptide 1905 [6] = biological target: T1, HIV-1 Peptide 1905; experiment: G assay ELISA (FIG. 4C): GST-PDZ on anti-GST plate, biotinylated peptide titrated, streptavidin-HRP
HIV-1 Peptide 1905 [7] = biological target: T1, HIV-1 Peptide 1905; experiment: modified G assay ELISA (FIG. 3C): peptide pre-incubated with streptavidin-HRP, titrated on GST-PDZ plate

Binder	binding result (HIV-1 Peptide 1905 [1])	binding result (HIV-1 Peptide 1904 [2])	also measured
B1	binds	–	–
B2	binds	binds	–
B3	–	binds	–
B4	binds	–	–
B5	binds	binds	–
B6	–	–	EC50 (HIV-1 Peptide 1904 [3]): 410 nM; EC50 (HIV-1 Peptide 1905 [4]): 68 nM; EC50 (HIV-1 Peptide 1904 [5]): 30 nM; EC50 (HIV-1 Peptide 1905 [6]): 182 nM; EC50 (HIV-1 Peptide 1905 [7]): 14 nM
B7	–	binds	–
B8	–	binds	–
B9	–	binds	–
